In patent US20220204643A1 (published 2022):
One block for each binder: values may come before it.

Tests used:
[1] = target: T1, PNMA family member 5, transcript variant 2 (human, UniProt Q96PV4 1-448)
T1 construct: HuProt array protein, full-length recombinant from yeast; also called PNMA5

[2] = target: T2, phospholipase C delta 1, transcript variant 2 (human, UniProt P51178 1-756)
T2 construct: HuProt array protein, full-length recombinant from yeast; also called PLCD1
T2 sequence: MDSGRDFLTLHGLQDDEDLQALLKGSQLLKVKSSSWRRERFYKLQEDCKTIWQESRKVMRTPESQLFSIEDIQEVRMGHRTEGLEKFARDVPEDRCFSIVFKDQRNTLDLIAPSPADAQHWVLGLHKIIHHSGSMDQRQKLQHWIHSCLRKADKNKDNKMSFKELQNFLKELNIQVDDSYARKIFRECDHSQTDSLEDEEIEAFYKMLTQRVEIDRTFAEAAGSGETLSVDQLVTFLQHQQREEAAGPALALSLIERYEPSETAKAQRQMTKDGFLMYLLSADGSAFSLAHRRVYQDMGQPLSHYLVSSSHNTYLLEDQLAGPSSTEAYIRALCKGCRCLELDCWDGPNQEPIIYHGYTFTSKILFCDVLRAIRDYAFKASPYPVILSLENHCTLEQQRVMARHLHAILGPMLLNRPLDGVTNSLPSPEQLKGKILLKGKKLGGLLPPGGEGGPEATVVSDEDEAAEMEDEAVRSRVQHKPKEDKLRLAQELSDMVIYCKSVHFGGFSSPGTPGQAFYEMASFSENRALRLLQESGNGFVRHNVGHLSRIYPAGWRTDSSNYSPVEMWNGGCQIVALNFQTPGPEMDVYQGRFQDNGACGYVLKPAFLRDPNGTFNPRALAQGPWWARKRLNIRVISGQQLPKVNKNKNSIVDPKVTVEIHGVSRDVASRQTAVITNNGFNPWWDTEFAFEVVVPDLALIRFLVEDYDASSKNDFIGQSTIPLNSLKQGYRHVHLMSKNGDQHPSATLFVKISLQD

[3] = target: T3, zinc finger protein 326, transcript variant 1 (human, UniProt Q5BKZ1 1-582)
T3 construct: HuProt array protein, full-length recombinant from yeast; also called ZNF326
T3 sequence: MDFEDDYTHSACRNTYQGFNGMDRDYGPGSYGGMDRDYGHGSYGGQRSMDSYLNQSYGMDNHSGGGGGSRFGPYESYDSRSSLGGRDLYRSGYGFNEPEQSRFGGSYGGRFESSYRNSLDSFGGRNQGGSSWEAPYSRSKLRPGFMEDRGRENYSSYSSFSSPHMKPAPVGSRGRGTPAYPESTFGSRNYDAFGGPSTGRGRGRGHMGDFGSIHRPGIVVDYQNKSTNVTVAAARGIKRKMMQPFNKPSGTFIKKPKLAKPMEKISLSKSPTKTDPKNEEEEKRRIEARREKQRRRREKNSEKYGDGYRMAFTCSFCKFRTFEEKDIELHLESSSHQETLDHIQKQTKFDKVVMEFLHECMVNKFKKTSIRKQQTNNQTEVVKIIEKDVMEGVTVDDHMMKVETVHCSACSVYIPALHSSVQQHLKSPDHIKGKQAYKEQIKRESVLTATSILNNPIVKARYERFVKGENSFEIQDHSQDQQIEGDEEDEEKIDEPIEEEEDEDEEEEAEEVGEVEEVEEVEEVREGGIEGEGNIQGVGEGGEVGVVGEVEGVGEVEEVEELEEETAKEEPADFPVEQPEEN

LN608403.1_frag = target: T4, LN608403.1_frag (human)
T4 construct: HuProt array protein; labelled _frag
T4 chain: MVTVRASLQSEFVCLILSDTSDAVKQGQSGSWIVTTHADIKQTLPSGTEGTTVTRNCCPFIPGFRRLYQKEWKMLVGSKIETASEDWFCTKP

[4] = target: T5, JPX transcript, XIST activator (human)
T5 construct: HuProt array protein; labelled _frag
T5 chain: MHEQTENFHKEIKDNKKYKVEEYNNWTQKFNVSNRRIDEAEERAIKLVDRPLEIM

[5] = target: T6, nucleosome assembly protein 1 like 1, transcript variant 1 (human, UniProt P55209 2-388)
T6 construct: HuProt array protein, full-length recombinant from yeast; also called NAP1L1
T6 sequence: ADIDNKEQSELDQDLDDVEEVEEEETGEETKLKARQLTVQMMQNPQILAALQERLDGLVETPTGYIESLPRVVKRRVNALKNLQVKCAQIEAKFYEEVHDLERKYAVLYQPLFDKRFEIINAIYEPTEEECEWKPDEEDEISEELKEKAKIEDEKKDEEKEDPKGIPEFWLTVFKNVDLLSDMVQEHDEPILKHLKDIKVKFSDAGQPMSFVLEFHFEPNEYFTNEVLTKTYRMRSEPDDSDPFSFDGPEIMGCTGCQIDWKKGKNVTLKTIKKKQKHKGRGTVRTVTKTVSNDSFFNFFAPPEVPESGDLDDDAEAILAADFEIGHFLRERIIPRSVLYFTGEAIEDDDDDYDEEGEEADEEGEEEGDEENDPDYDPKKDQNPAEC

[6] = target: T7, SATB homeobox 2, transcript variant 2 (human, UniProt Q9UPW6 1-733); assay: protein array
T7 construct: on protein array; also called SATB2
T7 sequence: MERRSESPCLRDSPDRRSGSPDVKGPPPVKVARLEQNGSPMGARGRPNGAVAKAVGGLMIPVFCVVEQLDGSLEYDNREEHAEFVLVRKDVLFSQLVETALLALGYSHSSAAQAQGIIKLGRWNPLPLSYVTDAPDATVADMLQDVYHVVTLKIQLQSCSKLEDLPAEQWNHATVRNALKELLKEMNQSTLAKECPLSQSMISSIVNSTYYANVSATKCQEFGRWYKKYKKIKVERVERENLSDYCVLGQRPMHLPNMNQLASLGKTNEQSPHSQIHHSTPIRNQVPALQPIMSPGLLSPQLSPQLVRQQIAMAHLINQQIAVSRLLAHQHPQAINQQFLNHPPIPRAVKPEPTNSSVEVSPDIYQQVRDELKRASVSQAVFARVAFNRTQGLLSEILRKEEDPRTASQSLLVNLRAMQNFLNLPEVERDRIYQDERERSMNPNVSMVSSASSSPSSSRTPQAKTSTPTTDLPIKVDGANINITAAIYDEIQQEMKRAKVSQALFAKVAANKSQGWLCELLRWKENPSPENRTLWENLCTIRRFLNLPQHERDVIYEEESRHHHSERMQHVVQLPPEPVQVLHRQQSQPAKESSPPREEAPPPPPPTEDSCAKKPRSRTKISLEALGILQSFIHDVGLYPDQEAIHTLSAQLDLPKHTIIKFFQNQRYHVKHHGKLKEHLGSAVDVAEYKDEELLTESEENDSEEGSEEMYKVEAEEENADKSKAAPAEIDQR

[7] = target: T8, ganglioside induced differentiation associated protein 1, transcript variant 2 (human, UniProt Q8TB36 69-358); assay: protein array
T8 construct: on protein array; also called GDAP1
T8 sequence: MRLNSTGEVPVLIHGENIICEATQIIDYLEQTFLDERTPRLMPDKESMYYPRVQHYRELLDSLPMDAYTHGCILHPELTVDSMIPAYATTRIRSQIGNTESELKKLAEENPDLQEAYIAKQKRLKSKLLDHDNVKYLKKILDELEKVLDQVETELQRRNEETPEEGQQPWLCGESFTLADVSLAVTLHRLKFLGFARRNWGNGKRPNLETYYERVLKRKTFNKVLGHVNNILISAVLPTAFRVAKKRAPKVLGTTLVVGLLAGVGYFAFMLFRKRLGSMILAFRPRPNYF

zinc finger protein 8 = target: T9, zinc finger protein 8 (human, UniProt P17098 1-575); assay: protein array
T9 construct: on protein array; also called ZNF8
T9 sequence (P17098 whole entry): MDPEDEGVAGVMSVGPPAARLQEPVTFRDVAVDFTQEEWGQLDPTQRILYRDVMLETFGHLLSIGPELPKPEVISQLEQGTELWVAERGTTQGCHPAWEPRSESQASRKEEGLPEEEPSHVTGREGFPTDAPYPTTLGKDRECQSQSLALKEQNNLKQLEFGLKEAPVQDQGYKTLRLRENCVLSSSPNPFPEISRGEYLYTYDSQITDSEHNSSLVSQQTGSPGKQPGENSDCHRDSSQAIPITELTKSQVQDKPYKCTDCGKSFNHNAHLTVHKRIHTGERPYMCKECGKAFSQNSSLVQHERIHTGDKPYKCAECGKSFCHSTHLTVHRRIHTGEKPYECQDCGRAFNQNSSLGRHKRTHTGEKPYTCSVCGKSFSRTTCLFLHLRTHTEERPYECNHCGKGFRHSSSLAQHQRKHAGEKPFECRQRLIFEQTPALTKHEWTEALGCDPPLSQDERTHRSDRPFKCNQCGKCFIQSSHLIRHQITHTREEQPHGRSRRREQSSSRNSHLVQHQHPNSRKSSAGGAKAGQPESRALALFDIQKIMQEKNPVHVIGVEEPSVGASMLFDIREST

[8] = target: T10, Egf like and emi domain containing 1, pseudogene (human, UniProt Q0D2K5 1-195)
T10 construct: HuProt array protein; pseudogene product; also called EGFEM1P
T10 sequence: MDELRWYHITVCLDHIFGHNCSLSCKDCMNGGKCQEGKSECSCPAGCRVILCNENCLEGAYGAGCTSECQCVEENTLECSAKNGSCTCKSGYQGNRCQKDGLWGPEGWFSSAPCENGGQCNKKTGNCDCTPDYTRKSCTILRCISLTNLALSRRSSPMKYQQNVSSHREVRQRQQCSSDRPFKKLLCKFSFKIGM

[9] = target: T11, nudE neurodevelopment protein 1, transcript variant 1 (human, UniProt Q9NXR1 1-335)
T11 construct: HuProt array protein, full-length recombinant from yeast; also called NDE1
T11 sequence: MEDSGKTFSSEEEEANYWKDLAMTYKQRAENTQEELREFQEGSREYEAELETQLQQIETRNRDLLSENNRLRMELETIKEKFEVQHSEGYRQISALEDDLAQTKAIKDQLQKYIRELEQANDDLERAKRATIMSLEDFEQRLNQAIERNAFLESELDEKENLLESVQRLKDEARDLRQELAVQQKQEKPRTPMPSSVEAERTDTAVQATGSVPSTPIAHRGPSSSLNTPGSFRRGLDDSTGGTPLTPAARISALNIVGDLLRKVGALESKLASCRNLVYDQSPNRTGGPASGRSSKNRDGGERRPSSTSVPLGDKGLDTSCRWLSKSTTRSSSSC

T1 sequence (Q96PV4 other isoform, or with tags, fused parts or gaps mutant limits assumed): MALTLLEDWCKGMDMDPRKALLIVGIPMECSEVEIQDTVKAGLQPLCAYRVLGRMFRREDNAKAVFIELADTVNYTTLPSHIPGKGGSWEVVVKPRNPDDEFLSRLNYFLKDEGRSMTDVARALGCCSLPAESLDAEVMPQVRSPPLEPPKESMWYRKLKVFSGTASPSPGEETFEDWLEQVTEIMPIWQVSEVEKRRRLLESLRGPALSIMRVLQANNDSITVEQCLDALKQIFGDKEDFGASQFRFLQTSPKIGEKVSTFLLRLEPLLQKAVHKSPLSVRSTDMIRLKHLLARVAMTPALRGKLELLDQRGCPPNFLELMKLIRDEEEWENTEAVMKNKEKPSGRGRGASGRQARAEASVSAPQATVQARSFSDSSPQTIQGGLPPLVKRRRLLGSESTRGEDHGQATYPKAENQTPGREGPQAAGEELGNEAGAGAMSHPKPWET

B1: TBRE1039 (antibody, V domains shown)
VH: PVQLVQSGAEVKKPGSSVKVSCKASGGTFSSYAISWVRQAPGQGLEWMGGIIPIFGTANYAQKFQGRVTITADESTSTAYMELSSLRSEDTAVYYCARENWNSAGTTEWFDPWGQGTLVTVSS
VL: PYVLTQPPSVSVAPGKTARITCGGNNIGSKSVHWYQQKPGQAPVLVIYYDSDRPSGIPERFSGSNSGNTATLTISRVEAGDEADYYCQVWDSSSDHYVVFGGGTKLTVLG
notes: detected with anti-human IgG Fc
- binding result [1]: binds
- binding result [2]: binds
- binding result [3]: binds

B2: TBRE1045 (antibody, V domains shown)
VH: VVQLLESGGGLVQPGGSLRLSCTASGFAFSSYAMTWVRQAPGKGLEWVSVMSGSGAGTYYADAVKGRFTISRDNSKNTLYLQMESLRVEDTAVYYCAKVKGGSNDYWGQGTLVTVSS
VL: PYVLTQPPSVSVAPGQTARITCGGNNIGSKSVHWYQQKPGQAPVMVVYADRERPSGIPERLSGSNFGNTATLTISRVEAGDEADYYCQVWDSNNDHREVFGGGTKLTVLG
notes: as for B1
- binding result (LN608403.1_frag): binds
- binding result [4]: binds

B3: TCER1001 (antibody, V domains shown)
VH: EVQLVESGGGLVQPGRSLRLSCAASGFTFDDYAMHWVRQAPGKGLEWVSGISWNSGSIGYADSVKGRFTISRDNAKNSLYLQMNSLRAEDTALYYCAKDLLGFRDQRNYYGMDVWGQGTTVTVSS
VL: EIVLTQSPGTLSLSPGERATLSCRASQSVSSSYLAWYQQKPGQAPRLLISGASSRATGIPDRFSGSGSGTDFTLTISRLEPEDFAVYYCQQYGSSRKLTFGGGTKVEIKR
notes: as for B1
- binding result [5]: binds

B4: TBRE1017 (antibody, V domains shown)
VH: QVQLVQSGAEVKKPGASVKVSCKASGYNFRDYYMHWVRQAPGQGLEWMGWINPNSGGTISAQNFQGRVTMTRDTSISTAYMEVNSLRSDDTAVYYCAVGMVTDGFEIWGQGTLVTVSS
VL: PYELTQPPSVSVSPGQTARITCSGDALPNENAFWYQQKPGQAPVLVIYEDIKRPSGIPERFSGSSSGTTVTLTISGVQAEDEADYYCQSVDITSTWVFGGGTKLTVLG
notes: VH/VL only
- binding result [6]: binds
- binding result [7]: binds
- binding result (zinc finger protein 8): binds

More lines, now with the values ahead:

- binding result [8]: binds
B5: TBRE1036 (antibody, V domains shown)
VH: QVQLVESGGGVVQPGRSLRLSCAASGFTFSSYAMHWVRQAPGKGLEWVAVISYDGSNKYYADSLKGRFTISRDNSKDTLYLQVNSLRPEDTAVYYCARVNIAAAGTLDYWGQGTLVTVSS
VL: EIVLTQSPGTLSLSPGERATLSCRASQSVSSRYLAWYQQKPGQAPRLLIHGASSRATGIPDRFSGSGSGTDFTLTISRLEPEDFAVYYCQQYGSAWTFGQGTKVEIKR
notes: as for B1

- binding result [9]: binds
B6: TCER1002 (antibody, V domains shown)
VH: QVQLQESGPGLVKPSETLSLSCTVSGASMNNYYWSWIRQSAGKGLEWIGRIYSSGDTDYNPSLKTRVTMSIDTSKNQFSLNLDSVTAADTATYYCARSFYDTLFYFENWGQGTLVTVSS
VL: DIQMTQSPSTLSASVGDRVTITCRASQSISVWLAWYQQKPGKAPKLLIYKASTLEAGVPSRFSGSGSGTEFSLTISGLQPDDFGTYFCQHYDSYPWTFGQGTKVEMK
notes: as for B1
